According to patent US20060154859A1 (YISSUM RESEARCH DEVELOPMENT COMPANY OF THE HEBREW …, published 2006):
Residue numbers refer to the chain shown, from its start. In names and notes the source's numbering stands. Each block holds one binder with its values, some of them ahead of it.

Assays:
[1] = target: T1, recombinant chicken leptin binding domain (chLBD) (chicken); assay: SPR (Biacore 3000), leptin mutant amine-coupled to CM5 chip, soluble chLBD as analyte, 25 C, 1:1 Langmuir fit, mean of 2 experiments
T1 construct: The 1:1 complex with leptin has a predicted mass of 40.5 kDa, so chLBD is about 24.5 kDa
Procedure: (v) Kinetic measurements of leptin and leptin mutants interaction with chLBD. All experiments were performed at 25° C. using surface plasmon resonance (SPR) methodology. The kinetics and equilibrium constants for the interactions between human and chicken recombinant LBD and chicken and hLep were determined using the Biacore 3000 system (Uppsala, Sweden). Leptin (human, ovine or chicken) was immobilized in a flow cell of a research-grade CM5 (carboxymethyldextran) sensor chip using amine-coupling chemistry (Johnsson et al., 1991). The immobilization steps were carried out at a flow rate of 5 μl/min in HBS-EB buffer. The surface was activated for 7 min with a mixture of 0.05 M N-hydroxysuccinimide and 0.2 M N-ethyl-N′(3-dimetylaminopropyl)-carbodiimide hydrochloride. Leptin was injected at a concentration of 50 μg/ml in 10 mM acetate, pH 3.5, until the desired level (1000 resonance units) was achieved. 1 M ethanolamine, pH 8.5, was injected for 7 min to block the remaining activated groups. A control surface was prepared by activating the carboxyl groups and then blocking the activated groups by ethanolamine as described. […] Regeneration of the surface after each interaction was performed by using 10-μl pulse of 10 mM glycine buffer, pH 2. The experiments were controlled by the kinetics Wizard of the Biacore control software, which corrects automatically for refractive index changes and non-specific binding by subtraction of the responses obtained for the control surface from the data obtained for the interactions between LBD and leptin. The obtained binding curves were fitted to the association and dissociation phases at all LBD concentrations simultaneously using Biacore evaluation software. In all cases, the best fit was obtained for a simple bimolecular interaction (Langmuir model).
To further characterize the binding capacities of chLBD with human or ovine leptins and their mutants the surface plasmon resonance (SPR) technique using respective leptin (or leptin mutant) immobilized on a sensor chip by amine coupling and binding of soluble chLBD was employed.

[2] = target: T2, long form of human leptin receptor (human, UniProt P48357 22-1165); assay: radioreceptor competition assay against iodinated leptin, homogenate of BAF/3 cells with long form of human leptin receptor, average of two experiments
T2 construct: whole, on cells; The radioreceptor assay used a homogenate of the transfected BAF/3 cells; The proliferation assay used live BAF/3 1442-CI 4 cells; also called LEPR; OB-R
T2 sequence (looked up): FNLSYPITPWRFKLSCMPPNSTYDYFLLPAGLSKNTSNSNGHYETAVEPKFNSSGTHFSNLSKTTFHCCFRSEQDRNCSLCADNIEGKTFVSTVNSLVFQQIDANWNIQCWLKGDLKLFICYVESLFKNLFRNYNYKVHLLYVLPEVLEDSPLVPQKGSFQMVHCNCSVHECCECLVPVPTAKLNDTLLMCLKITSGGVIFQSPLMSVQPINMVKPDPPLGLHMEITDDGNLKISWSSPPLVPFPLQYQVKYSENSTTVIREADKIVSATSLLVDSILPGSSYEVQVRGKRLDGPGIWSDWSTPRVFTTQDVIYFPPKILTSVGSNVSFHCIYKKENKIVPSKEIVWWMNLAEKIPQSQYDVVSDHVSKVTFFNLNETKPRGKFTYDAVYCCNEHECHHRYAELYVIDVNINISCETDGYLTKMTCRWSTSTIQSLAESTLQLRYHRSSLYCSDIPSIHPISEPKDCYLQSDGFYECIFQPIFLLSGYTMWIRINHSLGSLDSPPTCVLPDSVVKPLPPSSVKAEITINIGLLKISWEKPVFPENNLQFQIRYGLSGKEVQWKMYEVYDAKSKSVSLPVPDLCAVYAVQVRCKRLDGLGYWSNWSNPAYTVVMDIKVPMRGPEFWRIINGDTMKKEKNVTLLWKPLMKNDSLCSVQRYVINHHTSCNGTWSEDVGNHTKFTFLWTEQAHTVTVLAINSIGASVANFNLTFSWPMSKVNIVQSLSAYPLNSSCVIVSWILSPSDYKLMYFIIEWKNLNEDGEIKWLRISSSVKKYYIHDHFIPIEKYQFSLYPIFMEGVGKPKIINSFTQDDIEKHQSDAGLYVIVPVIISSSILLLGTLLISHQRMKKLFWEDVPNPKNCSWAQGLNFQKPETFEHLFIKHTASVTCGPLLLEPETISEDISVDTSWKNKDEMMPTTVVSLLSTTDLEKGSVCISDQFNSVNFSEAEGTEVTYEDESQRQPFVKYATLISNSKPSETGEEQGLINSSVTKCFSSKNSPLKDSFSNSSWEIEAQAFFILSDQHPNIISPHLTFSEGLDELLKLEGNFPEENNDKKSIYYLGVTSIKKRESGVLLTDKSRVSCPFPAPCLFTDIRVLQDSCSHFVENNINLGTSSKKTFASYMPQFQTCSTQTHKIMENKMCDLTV
Procedure: (vi) Binding assays. Radiolabeled ovine ¹²⁵I-leptin served as a ligand and all other nonlabeled leptins or their mutants as competitors. The experiments were conducted with homogenates of BAF/3 cells stably transfected with the long form of human leptin receptor. The cells were cultured in RPMI 1640 supplemented with 5% FCS in the -presence of IL-3 to minimize leptin receptors down-regulation till concentration of 10⁶ cells/ml was reached. Then the cells were spun and stored at −70° C. […] Each tube contained 150 μl of reaction buffer, 100 μl ¹²⁵I-human leptin (700,000-800,000 cpm) and 100 μl of different leptin solutions (providing 0-5000 ng/tube) in reaction buffer and the reaction was started by addition of 150 μl homogenate. The tubes were incubated for 18 h at room temperature. Then the leptin-receptor complex was precipitated by adding 250 μl of 1% (w/v) bovine immunoglobulin and 500 μl of 20% (w/v) polyethylene glycol. The tubes were thoroughly mixed, incubated for 30 min at 4° C., and centrifuged at 12,000 g for 15 min at 4° C. Then supernatant was carefully aspirated and the precipitates were counted in a γ counter. Human leptin was iodinated according to a protocol previously described for the iodination of hGH (Gertler et al., 1984).
Iodinated human leptin served as the ligand in all competitive experiments and the respective wild-type (WT) human and ovine leptins and their alanine mutants as competitors. Freshly prepared homogenate of BAF/3 cells stably transfected with the long form of human leptin receptor served as receptor source. Homogenate from 1.75×10⁶ cells was used per tube giving 6 to 7% specific binding.

Kd [1]: 28.5 nM | koff [1]: 0.0102 s⁻¹ | kon [1]: 358000 M⁻¹ s⁻¹ | IC50 [2]: 5.21 nM
B1: human leptin L39A/D40A/F41A mutant (ligand)
chain: VPIQKVQDDTKTLIKTIVTRINDISHTQSVSSKQKVTGAAAIPGLHPILTLSKMDQTLAVYQQILTSMPSRNVIRISNDLENLRDLLHVLAFSKSCHLPWASGLETLDSLGGVLEASGYSTEVVALSRLQGSLQDMLWQLDLSPGC
notes: Expressed with an extra Met-Ala at the N-terminus, Met removed; also called L39A/D40A/F41A (human)

Kd [1]: 22.9 nM | koff [1]: 0.0125 s⁻¹ | kon [1]: 545000 M⁻¹ s⁻¹ | IC50 [2]: 4.16 nM
B2: human leptin L39A/D40A mutant (ligand)
chain: B1 chain with A41F
notes: also called L39A/D40A (human)

Kd [1]: 50.3 nM | koff [1]: 0.0068 s⁻¹ | kon [1]: 135000 M⁻¹ s⁻¹ | IC50 [2]: 5.43 nM
B3: human leptin L39A/D40A/F41A/I42A mutant (ligand)
chain: B1 chain with I42A
notes: Expressed with an extra Met-Ala at the N-terminus, Met removed; also called L39A/D40A/F41A/I42A (human)

Kd [1]: 31.8 nM | koff [1]: 0.0115 s⁻¹ | kon [1]: 362000 M⁻¹ s⁻¹ | IC50 [2]: 6.82 nM
B4: human leptin F41A/I42A mutant (ligand)
chain: B1 chain with A39L, A40D, I42A
notes: Expressed with an extra Met-Ala at the N-terminus, Met removed; also called F41A/I42A (human)

Kd [1]: 13.8 nM | koff [1]: 0.0025 s⁻¹ | kon [1]: 181000 M⁻¹ s⁻¹ | IC50 [2]: 2.2 nM
B5: ovine leptin L39A/D40A/F41A mutant (ligand)
chain: VSIRKVQDDTKTLIKTIVTRINDISHTQSVSSKQRVTGAAAIPGLHPLLSLSKMDQTLAIYQQILASLPSRNVIQISNDLENLRDLLHLLAASKSCPLPQVRALESLESLGVVLEASLYSTEVVALSRLQGSLQDMLRQLDLSPGC
notes: also called L39A/D40A/F41A (ovine)

Kd [1]: 24 nM | koff [1]: 0.0057 s⁻¹ | kon [1]: 237000 M⁻¹ s⁻¹ | IC50 [2]: 1.83 nM
B6: ovine leptin L39A/D40A mutant (ligand)
chain: B5 chain with A41F
notes: also called L39A/D40A (ovine)

Kd [1]: 12.8 nM | koff [1]: 0.0032 s⁻¹ | kon [1]: 250000 M⁻¹ s⁻¹ | IC50 [2]: 3.44 nM
B7: ovine leptin F41A/I42A mutant (ligand)
chain: B5 chain with A39L, A40D, I42A
notes: also called F41A/I42A (ovine)

Kd [1]: 29.3 nM | koff [1]: 0.0032 s⁻¹ | kon [1]: 109000 M⁻¹ s⁻¹ | IC50 [2]: 1.83 nM
B8: ovine leptin L39A/D40A/F41A/I42A mutant (ligand)
chain: B5 chain with I42A
notes: also called L39A/D40A/F41A/I42A (ovine)
